# Results taken from article PMC8558179, “The C-terminal peptide of CCL21 drastically augments CCL21 activity through the dendritic cell lymph node homing receptor CCR7 by interaction with the receptor N-terminus” (Cellular and Molecular Life Sciences: CMLS, 2021).
# Substitutions are numbered along the chain they refer to. “Also recorded” adds a separate entry of the source.
# T1: human CCR7 (Homo sapiens, UniProt P32248)
# T1 construct: CCR7 contains a 24-residue long signal peptide cleaved of from the mature protein; expressed in transfected cells; host or cells: CHO cells (CHO-K1, CHO suspension WT, GAG-deficient and 5xKO GalNAc-T knockout lines), transient transfection
# T1 sequence (P32248 25-378): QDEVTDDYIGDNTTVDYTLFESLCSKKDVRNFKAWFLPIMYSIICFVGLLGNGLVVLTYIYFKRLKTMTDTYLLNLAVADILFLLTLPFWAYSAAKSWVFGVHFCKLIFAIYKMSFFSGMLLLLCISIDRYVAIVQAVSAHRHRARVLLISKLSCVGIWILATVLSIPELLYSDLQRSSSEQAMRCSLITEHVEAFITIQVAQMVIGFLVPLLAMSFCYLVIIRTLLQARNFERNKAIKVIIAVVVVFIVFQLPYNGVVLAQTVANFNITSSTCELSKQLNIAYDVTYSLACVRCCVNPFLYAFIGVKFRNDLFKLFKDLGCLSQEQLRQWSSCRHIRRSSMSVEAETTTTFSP
# T2: CCR7^−O (CCR7 T37/38/42A) (Homo sapiens, UniProt P32248, T37A/T38A/T42A)
# T2 construct: CCR7 contains a 24-residue long signal peptide cleaved of from the mature protein; expressed in transfected cells; host or cells: CHO cells, transient transfection
# T2 sequence (P32248 25-378 T37A/T38A/T42A): T1 sequence (P32248 25-378) with T13A, T14A, T18A
# B1: CCL21: full-length chemokine (residues 1–111), CCR7 ligand, from R&D Systems (protein, UniProt O00585 24-134, looked up)
# C-C motif chemokine 21: SDGGAQDCCLKYSQRKIPAKVVRSYRKQEPSLGCSIPAILFLPRKRSQAELCADPKELWVQQLMQHLDKTPSPQKPAQGCRKDRGASKTGKKGKGSKGCKRTERSQTPKGP
# Key:
# human CCR7 = target: T1, human CCR7; experiment: β-arrestin recruitment, BRET-based assay at CCR7; assay type: cell-based
# Experimental: (§1) For cAMP assays, adherent CHO cells were transfected using lipofectamine while suspension cells were transfected using the FectoPro method. Cells were seeded in a 6-well plate, either 500,000 (adherent cells) or 200,000 (suspension cells) cells/well. The next day the cells were transiently transfected with vectors encoding the human CCR7 and CAMYEL sensor (cAMP sensor using YFP-Epac-RLuc) in a 1:5 ratio using lipofectamine (6 µl/well) or FectoPro (4 µl/well). Lipofectamine transfections were terminated by changing to 2 ml fresh cultivation medium after 5 h, while Fectopro transfection was terminated after 3 h by adding 2.5 ml fresh cultivation medium and 2 µl FectoPro Boost reagent per well. The cells were incubated under standard cultivation conditions overnight. For β-arrestin recruitment assays, cells were transfected with CCR7 and vectors expressing a Renilla luciferase arrestin3 fusion protein and membrane-SH3-citrine protein. The cells were then resuspended in PBS w/glucose and seeded in 96-well white iso plates (~ 25,000 cells/well). Coelenterazine (bioluminescence substrate) was added to a final conc. of 5 µM. After 10 min, cells were stimulated with varying ligand concentrations for a total of 40 min. Forskolin was added to each well 5 min after ligand addition to reach a final conc. of 5 µM. The plates were kept in the dark at all times. Emission signal from Rluc and eYFP was measured using the Envision machine at 530 and 480 nm and the BRET signal determined as the ratio between (eYFP/Rluc).
# [1] = target: T2, CCR7^−O (CCR7 T37/38/42A); experiment: Gαi signaling, BRET cAMP assay, CCR7 lacking N-terminal O-glycosylation sites; assay type: cell-based
# Experimental: O-glycosylation deficient CCR7 was generated from WT through Quick change PCR using the following primers: […]
# as §1
# CCR7-N (CCR7 N36/292A) = experiment: Gαi signaling, BRET cAMP assay, CCR7 lacking N-glycosylation sites; assay type: cell-based, human; details: CCL21 alone or CCL21 + 10 µM TP71-111, CHO cells, n = 3
# Experimental: For cAMP assays, adherent CHO cells were transfected using lipofectamine while suspension cells were transfected using the FectoPro method. Cells were seeded in a 6-well plate, either 500,000 (adherent cells) or 200,000 (suspension cells) cells/well. The next day the cells were transiently transfected with vectors encoding the human CCR7 and CAMYEL sensor (cAMP sensor using YFP-Epac-RLuc) in a 1:5 ratio using lipofectamine (6 µl/well) or FectoPro (4 µl/well). Lipofectamine transfections were terminated by changing to 2 ml fresh cultivation medium after 5 h, while Fectopro transfection was terminated after 3 h by adding 2.5 ml fresh cultivation medium and 2 µl FectoPro Boost reagent per well. The cells were incubated under standard cultivation conditions overnight. […] Emission signal from Rluc and eYFP was measured using the Envision machine at 530 and 480 nm and the BRET signal determined as the ratio between (eYFP/Rluc).
# Supplementary file 18_2021_3930_MOESM4_ESM.png: Supplementary file4 C21TP boosting ability is not dependent on N-glycosylation sites. […] Signaling was measured in CHO cells quantified using the BRET based cAMP assay. […] Statistical significance was calculated using two-way ANOVA with Tukey’s correction for multiple test. *P<0.05, **P <0.01, ***P<0.001 (PNG 328 KB)
Molecule,"effect of C21TP on CCL21^Tailless β-arrestin recruitment (human CCR7; CCL21^Tailless (CCL21 1–79) + 10 µM TP71-111, n = 4)","boosting of CCL19 signaling by C21TP at CCR7^−O ([1]; CCL19 + 10 µM TP71-111, CCR7^−O vs WT CCR7)",effect of removing extracellular N-glycosylation sites on signaling or boosting (CCR7-N) (CCR7-N (CCR7 N36/292A)),"pEC50, β-arrestin recruitment, chemokine alone (human CCR7; no peptide, n = 4)","chemokine activity on its own at CCR7^−O ([1]; no peptide, CCR7^−O vs WT CCR7)"
"TP71-111: free CCL21 C-terminal peptide, residues 71–111 (41 amino acids, positively charged) (PSPQKPAQGCRKDRGASKTGKKGKGSKGCKRTERSQTPKGP; UniProt O00585 94-134, looked up, fragment)",small but significant decrease,diminished,no effect,,
B1,,,no effect,undetectable,almost unaffected; also recorded: without affecting basal CCR7 activation via CCL19 and CCL21
